Test results taken from article PMC8064889 (Cell Reports, 2021).

Assays:
[1] = biological target: SARS-CoV-2 RBD, His6-tagged, for biolayer interferometry (SARS-CoV-2, UniProt P0DTC2); experiment: BLI; conditions: both partners purified
[2] = biological target: Avi-tag biotinylated RBD of SARS-CoV-2 S protein (SARS-CoV-2, UniProt P0DTC2); experiment: flow cytometry on cells; conditions: both partners purified

B1: 47D1 IgG (antibody, V domains shown)
VH: QVQLVQSGAEVKKPGSSVRVSCKASGGTFSTYPISWVRQAPGQGLEWMGGIIPIFGTAKSAQKFQGRVTITADEFTSTAYMEMSSLRSEDTAMYYCAREGRRYGSGWYISTGYFDYWGQGTLVTVSS
VL: QLVLTQPASVSGSPGQSIIVSCTGTSSDVGGYKFVSWYQQHPGKAPRVMIYDVSNRPSGVSNRFSGSKSGNTASLTISGLQADDEADYYCSSYTNSSTVVFGGGTKVTVL
B1: binds [1]; binds [2].
